Assay results from patent US20160287687A1 (IMMATICS BIOTECHNOLOGIES, published 2016).

Molecular target: T1, HLA-A*02:01 (human)
T1 construct: MHC monomers first loaded with a UV-sensitive peptide (not identified) that is cleaved by UV light and exchanged for the test peptide; captured on streptavidin plates, detected with anti-β2m; also called peptide-receptive MHC molecules; MHC class I
Test: UV-ligand exchange + anti-b2m ELISA; peptide exchange yield grade (+ >=10%, ++ >=20%, +++ >=50, ++++ >=75%)
Description: Candidate peptides for T cell based therapies according to the present invention were further tested for their MHC binding capacity (affinity). The individual peptide-MHC complexes were produced by UV-ligand exchange, where a UV-sensitive peptide is cleaved upon UV-irradiation, and exchanged with the peptide of interest as analyzed. Only peptide candidates that can effectively bind and stabilize the peptide-receptive MHC molecules prevent dissociation of the MHC complexes. To determine the yield of the exchange reaction, an ELISA was performed based on the detection of the light chain (β2m) of stabilized MHC complexes. The assay was performed as generally described in Rodenko et al. (Rodenko et al., 2006).
96 well MAXISorp plates (NUNC) were coated over night with 2 ug/ml streptavidin in PBS at room temperature, washed 4× and blocked for 1h at 37° C. in 2% BSA containing blocking buffer. Refolded HLA-A*02:01/MLA-001 monomers served as standards, covering the range of 15-500 ng/ml. Peptide-MHC monomers of the UV-exchange reaction were diluted 100 fold in blocking buffer. Samples were incubated for 1 h at 37° C., washed four times, incubated with 2 ug/ml HRP conjugated anti-β2m for 1h at 37° C., washed again and detected with TMB solution that is stopped with […]. Absorption was measured at 450 nm. […]

SLTALRLLL (source gene KBTBD11) [SLTALRLLL (SEQ ID NO: 70)]
peptide exchange yield: 20 to 50%
